Positions count from the first letter of the chain named.
Key:
[1] = target: T1, Abeta42 beta amyloid peptide (UniProt P05067 672-713); assay: competition ELISA on coated beta amyloid, NS0 supernatant; competitor biotinylated mouse 6E10
T1 construct: domain: Abeta42; also called Aβ42; beta amyloid (Covance)
Procedure: 100 μl of the antibody mixes were transferred into the wells of Immulon Maxisorb plates precoated with 0.06125 μg/ml Abeta₄₂ beta amyloid peptide coated plates and incubated at room temperature for 1 hour. The plate was washed, and bound biotinylated mouse 6E10 was detected by adding a strepavidin-HRP conjugate (Sigma, Poole UK) (diluted at 1:500) and OPD substrate (Sigma, Poole UK). The assay was developed in the dark for 5 minutes before being stopped by the addition of 3M HCl. The assay plate was then read in a MRX TCII plate reader at absorbance 490 nm.
(§1) Binding of humanized variants were tested in the competition binding ELISA described in Example 1. Briefly, supernatants from the best expressing lines for each combination were quantified using an Fc capture, Kappa light chain detection ELISA in comparison to a IgG1/kappa standard. The quantified supernatants were then tested in a competition ELISA for binding to their target antigen, beta amyloid. 96 well maxisorb plates (Nunc-Fisher Scientific, Loughborough, UK) were coated overnight at 4° C. with 50 μl/well of 0.06125 μg/ml beta amyloid (Covance, UK) in carbonate buffer pH 9.6. […] The titrations, 50 μl/well, were added to washed (3× with PBS pH 7.4/0.5%BSA/0.05% Tween 20) assay plates and incubated at room temperature for 1 hour. Plates were washed as above and 100 μl/well of a 1/500 dilution of streptavidin HRP (Sigma, Poole, UK) in PBS pH 7.4/0.5% BSA/0.05% Tween was added and incubated for a further 1 hour at room temperature. […] After stopping the reaction with 50 μl/well 3M HCl, absorbance was measured at 450 nm and the binding curves of the test antibodies were compared to the mouse reference standard. Absorbance was plotted against sample concentration and straight lines were fitted through each of the data sets.

[2] = target: T1, Abeta42 beta amyloid peptide; assay: competition ELISA on coated beta amyloid, purified antibody, n=2; competitor biotinylated chimeric mouse 6E10
Procedure: as §1
The purified antibodies were tested for binding to beta amyloid via competition ELISA as described above (n=2). Titrations of the test antibodies were done from 0.003 μg/ml to 16 μg/ml in duplicate. Absorbance at 450 nm was measured and this was plotted against test antibody concentration.

[3] = target: T1, Abeta42 beta amyloid peptide; assay: competition ELISA on coated beta amyloid, purified antibody (Table 4 experiment)
Procedure: as §1, with “hour.” for “hour. Plates were washed as above and 100 μl/well of a 1/500 dilution of streptavidin HRP (Sigma, Poole, UK) in PBS pH 7.4/0.5% BSA/0.05% Tween was added and incubated for a further 1 hour at room temperature.”
The purified antibodies were tested for binding to beta amyloid via competition ELISA as described above (n=2). […] Absorbance at 450 nm was measured and this was plotted against test antibody concentration.

[4] = target: T1, Abeta42 beta amyloid peptide; assay: western immunoblot of Aβ42 peptide, antibody at 1000-fold dilution
Procedure: (§2) The resulting conjugated antibodies (IgG and F(ab)₂ fragments) were subjected to dialysis to separate conjugated from unconjugated antibodies. The conjugated IgG antibodies were tested for their ability to bind amyloid beta (Aβ40 and Aβ42), using a western immunoblotting assay. In brief, Aβ40 or Aβ42 peptides (0.5 μg in diluent; Covance) were diluted in 4 μl nanopure water and prepared with 2× sample buffer to run through 4-20% Pierce Precise Protein Gel at 55V for 15 min, and then at 100V for 55 min. The proteins were then transferred onto 0.2 μm nitrocellulose membrane at 6V for 30 min. The membrane was blocked with a solution of dried milk powder (5% in Tris-buffered saline with Tween20; TBST, 1 L distilled water, 8 g NaCl, 2.4 g Tris, pH 7.5 with HCl, 1 mL Tween20). Membranes were then incubated overnight with a 1000-fold dilution of unconjugated or PSA-conjugated 6E10 IgG or F(ab′)₂ preparations, washed thrice with TBST for 5 min each, incubated with 1:2000 dilution of HRP-conjugated goat anti-mouse secondary antibody, and washed twice again with TBST for 10 min each. The chemiluminescent signal was developed with ECL-Plus reagent and the membranes were exposed to Kodak films to illustrate the bands.

Aβ40 peptide = target: T2, Aβ40 peptide (UniProt P05067 672-711); assay: western immunoblot of Aβ40 peptide, antibody at 1000-fold dilution
T2 construct: domain: Aβ40; also called amyloid beta
T2 sequence (P05067 672-711 limits assumed): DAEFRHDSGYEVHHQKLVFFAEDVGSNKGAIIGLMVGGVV
Procedure: as §2

T1 sequence (P05067 672-713 limits assumed): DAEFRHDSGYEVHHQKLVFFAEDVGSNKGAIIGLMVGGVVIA

B1: MDT-2007 (composite human antibody sequence variant VH4/VK2) (antibody, V domains shown)
VH: QVQLVQSGAEVKKPGASVKVSCTASGFNIKDTYIHWVRQARGQRLEWIGRFDPVNVNTRYDSRFRGRVTITSDASTNTAYMELSSLRSEDTAVYYCSRSYYNGRRRFTYWGQGTLVTVSS
VL: DIVMTQSPSSLTASVGDRVTITCKASQSLLSSGNQKNYLTWYQQKPGQPPKLLIYWASIRESGVPDRFTGSGSGTFFTLTISSLQAEDVAVYYCQNDYNYPFTFGQGTKLEIK
notes: Human IgG1/kappa (pANT15/pANT13)
fold difference in IC50 relative to mouse 6E10 (Binding Efficiencies Relative to Mouse MDT-2007) [1]: 0.67 fold
Fold Difference (IC50 normalized to the reference) [2]: 0.57 fold
IC50 [2]: 2.1 µg/mL
fold increase in binding compared to the mouse reference [3]: 1.72 fold

B2: chimeric 6E10 antibody (mouse 6E10 V regions, human IgG1/kappa constant regions) (antibody, V domains shown)
VH: EVQLQQSGAELVKPGASVKLSCTASGFNIKDTYIHWVKQRPEQGLEWIGRFDPVNVNTRYDSRFRGKATITSDASSNTAYLHLNSLTSEDTAVYYCSRSYYNGRRRFTYWGQGTLVTVSA
VL: B1 VL with A13V, S14T, V15A, D17E, R18K, T20A, I21L, L84V, V89L, Q106S
notes: also called chimeric mouse 6E10 antibody; chimeric antibody
Fold Difference (IC50 normalized to the reference) [2]: 1 fold
IC50 [2]: 3.6 µg/mL

B3: PSA-conjugated 6E10 IgG anti-Aβ antibody (antibody, V domains shown)
VH: B2 VH
VL: B1 VL with A13V, S14T, V15A, D17E, R18K, T20A, I21L, L84V, V89L, Q106S
modifications: polysialic acid (PSA) conjugated; site and chain not stated; polysialic acid (PSA, 30 to 90 sialic acid units) conjugated by periodate oxidation and sodium cyanoborohydride; site and chain not stated
notes: also called PSA-conjugated IgG anti-Aβ; conjugated IgG antibodies
binding result [4]: binds
binding result (Aβ40 peptide): binds

B4: composite human antibody variant VH2/VK3 (antibody, human IgG1, V domains shown)
VH: B1 VH with Q1E, V68A
VL: B1 VL with T69S, F76D
notes: Human IgG1/kappa (pANT15/pANT13); Tested as quantified NS0 supernatant
fold difference in IC50 relative to mouse 6E10 (Binding Efficiencies Relative to Mouse MDT-2007) [1]: 0.96 fold

B5: composite human antibody variant VH2/VK2 (antibody, human IgG1, V domains shown)
VH: B1 VH with Q1E, V68A
VL: B1 VL
notes: as for B4
fold difference in IC50 relative to mouse 6E10 (Binding Efficiencies Relative to Mouse MDT-2007) [1]: 1.1 fold

B6: composite human antibody variant VH4/VK1 (antibody, human IgG1, V domains shown)
VH: B1 VH
VL: B1 VL with S9D, A13V, V15L, D17E, V19A, T22N
notes: as for B1
fold difference in IC50 relative to mouse 6E10 (Binding Efficiencies Relative to Mouse MDT-2007) [1]: 0.94 fold
Fold Difference (IC50 normalized to the reference) [2]: 1.14 fold
IC50 [2]: 4.1 µg/mL

B7: composite human antibody variant VH4/VK3 (antibody, human IgG1, V domains shown)
VH: B1 VH
VL: B1 VL with T69S, F76D
notes: as for B4
fold difference in IC50 relative to mouse 6E10 (Binding Efficiencies Relative to Mouse MDT-2007) [1]: 1.36 fold

B8: composite human antibody variant VH5/VK3 (antibody, human IgG1, V domains shown)
VH: B1 VH with N77S
VL: B1 VL with T69S, F76D
notes: as for B4
fold difference in IC50 relative to mouse 6E10 (Binding Efficiencies Relative to Mouse MDT-2007) [1]: 1.02 fold

B9: composite human antibody variant VH5/VK2 (antibody, human IgG1, V domains shown)
VH: B1 VH with N77S
VL: B1 VL
notes: as for B1
fold difference in IC50 relative to mouse 6E10 (Binding Efficiencies Relative to Mouse MDT-2007) [1]: 0.72 fold
Fold Difference (IC50 normalized to the reference) [2]: 0.72 fold
IC50 [2]: 2.6 µg/mL

B10: composite human antibody variant VH1/VK3 (antibody, human IgG1, V domains shown)
VH: B1 VH with Q1E, V11L, R41P, V68A
VL: B1 VL with T69S, F76D
notes: as for B4
fold difference in IC50 relative to mouse 6E10 (Binding Efficiencies Relative to Mouse MDT-2007) [1]: 1.93 fold

B11: composite human antibody variant VH5/VK1 (antibody, human IgG1, V domains shown)
VH: B1 VH with N77S
VL: B1 VL with S9D, A13V, V15L, D17E, V19A, T22N
notes: as for B1
fold difference in IC50 relative to mouse 6E10 (Binding Efficiencies Relative to Mouse MDT-2007) [1]: 0.8 fold
Fold Difference (IC50 normalized to the reference) [2]: 0.91 fold
IC50 [2]: 3.3 µg/mL

B12: composite human antibody variant VH3/VK3 (antibody, human IgG1, V domains shown)
VH: B1 VH with V68A
VL: B1 VL with T69S, F76D
notes: as for B4
fold difference in IC50 relative to mouse 6E10 (Binding Efficiencies Relative to Mouse MDT-2007) [1]: 1.57 fold

B13: composite human antibody variant VH1/VK1 (antibody, human IgG1, V domains shown)
VH: B1 VH with Q1E, V11L, R41P, V68A
VL: B1 VL with S9D, A13V, V15L, D17E, V19A, T22N
notes: as for B4
fold difference in IC50 relative to mouse 6E10 (Binding Efficiencies Relative to Mouse MDT-2007) [1]: 0.78 fold

— US20110202000A1 (MEDTRONIC, published 2011)
